# Measurements as given in article PMC8857470, “Molecular insights into the maturation of phosphodiesterase 6 by the specialized chaperone complex of HSP90 with AIPL1” (The Journal of Biological Chemistry, 2022).
# Several values for one entry are separate records, joined by “and”; a condition that tells them apart may be missing. Equal values may be shown once.
# B1: AIPL1-Δα3 (Δ111–132) (natural protein, mouse)
# chain: MDVSLLLNVEGVKKTILHGGTGELPSFITGSRVTFHFRTMKCDDERTVIDDSKQVGQPMSIIIGNMFKLEVWETLLTSMRLGEVAEFWCDTIHTGVYPMLSRSLRQVAEGGGGGGGYEDLDELQKEPQPLVFLIELLQVEAPNEYQRETWNLNNEERMQAVPLLHGEGNRLYKLGRYDQAATKYQEAIVCLRNLQTKEKPWEVEWLKLEKMINTLILNYCQCLLKKEEYYEVLEHTSDILRHHPGIVKAYYMRARAHAEVWNAEEAKADLEKVLELEPSMRKAVLRELRLLESRLADKQEEERQRCRSMLG
# notes: AIPL1, mouse, residues before the replaced stretch 111-132; five glycine residues that replace residues 111 to 132 of AIPL1 (told in words); AIPL1, mouse, residues after the replaced stretch 111-132, to the end of the full-length protein (aa 328); also called AIPL1-Δα3 (loop deletion); α3-helix deletion; source: E. coli BL21-(DE3), purified (Ni-NTA, Mono Q5, SEC)
# B2: AIPL1_(1–316) (domain or fragment, mouse, UniProt Q924K1 1-316, looked up)
# chain: MDVSLLLNVEGVKKTILHGGTGELPSFITGSRVTFHFRTMKCDDERTVIDDSKQVGQPMSIIIGNMFKLEVWETLLTSMRLGEVAEFWCDTIHTGVYPMLSRSLRQVAEGKDPTSWHVHTCGLANMFAYHTLGYEDLDELQKEPQPLVFLIELLQVEAPNEYQRETWNLNNEERMQAVPLLHGEGNRLYKLGRYDQAATKYQEAIVCLRNLQTKEKPWEVEWLKLEKMINTLILNYCQCLLKKEEYYEVLEHTSDILRHHPGIVKAYYMRARAHAEVWNAEEAKADLEKVLELEPSMRKAVLRELRLLESRLADKQ
# notes: source: E. coli BL21-(DE3), purified (Ni-NTA, Mono Q5, SEC)
# B3: full-length mouse AIPL1 (aa 1–328) (natural protein, UniProt Q924K1 1-328, looked up)
# chain: MDVSLLLNVEGVKKTILHGGTGELPSFITGSRVTFHFRTMKCDDERTVIDDSKQVGQPMSIIIGNMFKLEVWETLLTSMRLGEVAEFWCDTIHTGVYPMLSRSLRQVAEGKDPTSWHVHTCGLANMFAYHTLGYEDLDELQKEPQPLVFLIELLQVEAPNEYQRETWNLNNEERMQAVPLLHGEGNRLYKLGRYDQAATKYQEAIVCLRNLQTKEKPWEVEWLKLEKMINTLILNYCQCLLKKEEYYEVLEHTSDILRHHPGIVKAYYMRARAHAEVWNAEEAKADLEKVLELEPSMRKAVLRELRLLESRLADKQEEERQRCRSMLG
# notes: also called wt AIPL1; source: E. coli BL21-(DE3), purified (Ni-NTA, Mono Q5, SEC)
# Assays:
# Settings in all cases: both partners purified
# [1] = target: T1, Avi-tagged HSP90β (full-length human HSP90β, residues 1–724) (human, UniProt P08238 1-724, biotin (in vivo biotinylation, N-terminally biotinylated)); assay: BLI; HSP90_(AMPPNP) (closed state): biotinylated Avi-tagged HSP90β on streptavidin sensors, AIPL1 or mutants in solution; Octet RED96, 26 °C, 25 mM Tris, 200 mM NaCl, 2.5% glycerol, 1 mM TCEP, 0.5 mg/ml BSA, pH 7.5; 1:1 kinetic fit (KD = koff/kon) and steady-state fit
# T1 construct: HSP90β, human, residues 1-724, cDNA isolated from HEK293T cells; Modified pET21a vector: N-terminal His6-tag, then the Avi tag, then a TEV cleavage site; Used apo (open state) or after incubation with AMPPNP (closed state); the two states are told apart by the assay; Host surmised to be E. coli; also called His6-Avi-tagged HSP90β; N-terminally biotinylated hHSP90B; source: cells grown in TB media …
# T1 sequence (P08238 whole entry, the tested form may be a part): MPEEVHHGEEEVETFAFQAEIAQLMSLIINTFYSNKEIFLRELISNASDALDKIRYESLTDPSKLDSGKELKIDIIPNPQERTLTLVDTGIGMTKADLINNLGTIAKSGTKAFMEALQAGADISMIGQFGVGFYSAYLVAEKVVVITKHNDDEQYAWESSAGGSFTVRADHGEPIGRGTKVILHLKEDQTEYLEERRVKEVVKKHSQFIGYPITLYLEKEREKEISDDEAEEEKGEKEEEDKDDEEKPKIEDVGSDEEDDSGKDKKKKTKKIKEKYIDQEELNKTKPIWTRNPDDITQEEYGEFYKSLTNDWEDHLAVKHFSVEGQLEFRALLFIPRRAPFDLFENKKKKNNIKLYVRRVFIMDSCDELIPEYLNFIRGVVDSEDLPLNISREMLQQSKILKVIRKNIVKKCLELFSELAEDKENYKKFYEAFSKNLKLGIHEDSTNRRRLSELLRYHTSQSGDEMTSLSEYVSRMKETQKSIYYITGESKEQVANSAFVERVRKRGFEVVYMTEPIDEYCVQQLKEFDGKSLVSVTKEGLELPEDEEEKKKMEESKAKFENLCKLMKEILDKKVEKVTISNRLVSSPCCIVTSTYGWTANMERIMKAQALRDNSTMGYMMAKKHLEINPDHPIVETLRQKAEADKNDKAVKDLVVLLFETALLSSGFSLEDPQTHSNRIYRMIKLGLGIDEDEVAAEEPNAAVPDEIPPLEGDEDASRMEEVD
# [2] = target: T1, Avi-tagged HSP90β (full-length human …); assay: BLI; apo HSP90: biotinylated Avi-tagged HSP90β on streptavidin sensors, AIPL1 in solution; Octet RED96, 26 °C, 25 mM Tris, 200 mM NaCl, 2.5% glycerol, 1 mM TCEP, 0.5 mg/ml BSA, pH 7.5; 1:1 kinetic fit (KD = koff/kon) and steady-state fit
# [3] = target: T2, full-length human HSP90β (residues 1–724), pET15b construct (human, UniProt P08238 1-724); assay: cross-linking + other: mass photometry; DSS (0.5 mM) or glutaraldehyde (0.03%) added to HSP90β (15 μM), AIPL1 (25 μM) or their mixture (HSP90_(AMPPNP)/AIPL1), 15 to 30 min at 25 °C, 25 mM Hepes pH 7.5, 200 mM NaCl, 5% glycerol, 1 mM TCEP; products on 3 to 8% Tris-acetate gel and by mass photometry
# T2 construct: HSP90β, human, residues 1-724, cDNA isolated from HEK293T cells; Cloned into pET15b through Nco1-Nde1 sites; Host surmised to be E. coli; also called apo HSP90; HSP90_(AMPPNP); source: purified by SEC
# T2 sequence (P08238 whole entry, the tested form may be a part): as above
Binder,binding result [1],Kd [1] [µM],Kd [2],koff [2] [s⁻¹],kon [2] [M⁻¹ s⁻¹],koff [1] [s⁻¹],kon [1] [M⁻¹ s⁻¹],stoichiometry N [3]
B1,binds,–,–,–,–,–,–,–
B2,–,27,–,–,–,–,–,–
B3,–,4.8,~17 µM and 32 µM and 33 µM,1.2,71000,0.32,150000,0.5 AIPL1 per HSP90 chain (1:2)
